± gives the standard deviation.
Assay: collision cross section of modified peptide (TIMS, N2, iRT-aligned); higher = larger / more extended gas-phase ion
Procedure: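 1/K0 was aligned run-wise to spiked iRT peptides and converted to CCS in N2 (Mason-Schamp). Values are the mean of 1-3 technical replicates for the most abundant feature at each charge state.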

[1] = charge state: 2, modification: Trimethyl (K)
[2] = charge state: 3, modification: Trimethyl (K)
[3] = charge state: 2, modification: hydroxyisobutyryl
[4] = charge state: 3, modification: hydroxyisobutyryl
[5] = charge state: 2, modification: Acetyl (K)
[6] = charge state: 2, modification: Biotin
[7] = charge state: 2, modification: Butyryl
[8] = charge state: 2, modification: Crotonyl
[9] = charge state: 2, modification: Dimethyl (K)
[10] = charge state: 3, modification: Dimethyl (K)
[11] = charge state: 2, modification: Formyl
[12] = charge state: 2, modification: Glutarylation
[13] = charge state: 2, modification: GlyGly (K)
[14] = charge state: 3, modification: GlyGly (K)
[15] = charge state: 2, modification: Malonyl
[16] = charge state: 2, modification: Methyl (K)
[17] = charge state: 3, modification: Methyl (K)
[18] = charge state: 2, modification: Propionyl
[19] = charge state: 2, modification: Succinyl
[20] = charge state: 2, modification: Nitro (Y)
[21] = charge state: 2, modification: Phospho (Y)
[22] = charge state: 3, modification: Succinyl
[23] = charge state: 3, modification: Acetyl (K)
[24] = charge state: 3, modification: Butyryl
[25] = charge state: 3, modification: Glutarylation
[26] = charge state: 3, modification: Nitro (Y)

DHLSDKESK [_DHLSDK(Trimethyl (K))ESK_]
collision cross section [1]: 350.64 ± 1.1 Å²
collision cross section [2]: 401.61 ± 0.025 Å²

DHLSDKESK [_DHLSDK(hydroxyisobutyryl)ESK_]
collision cross section [3]: 357.61 ± 1.9 Å²
collision cross section [4]: 415.53 ± 4.4 Å²

DHSKPISNPSDNK [_DHS(HexNAc (ST))KPISNPSDNK_]
collision cross section (charge state: 2, modification: HexNAc (ST)): 406.95 ± 0.13 Å²
collision cross section (charge state: 3, modification: HexNAc (ST)): 479.5 ± 0.17 Å²

DKALPLEAEVAPVK [_DK(Acetyl (K))ALPLEAEVAPVK_]
collision cross section [5]: 407.82 ± 5.1 Å²

DKALPLEAEVAPVK [_DK(Biotin)ALPLEAEVAPVK_]
collision cross section [6]: 435.06 Å²

DKALPLEAEVAPVK [_DK(Butyryl)ALPLEAEVAPVK_]
collision cross section [7]: 418.05 ± 4.9 Å²

DKALPLEAEVAPVK [_DK(Crotonyl)ALPLEAEVAPVK_]
collision cross section [8]: 411.34 ± 0.34 Å²

DKALPLEAEVAPVK [_DK(Dimethyl (K))ALPLEAEVAPVK_]
collision cross section [9]: 411.93 ± 0.85 Å²
collision cross section [10]: 502.53 ± 1.6 Å²

DKALPLEAEVAPVK [_DK(Formyl)ALPLEAEVAPVK_]
collision cross section [11]: 412.02 ± 0.74 Å²

DKALPLEAEVAPVK [_DK(Gluratylation)ALPLEAEVAPVK_]
collision cross section [12]: 424.54 ± 0.97 Å²

DKALPLEAEVAPVK [_DK(GlyGly (K))ALPLEAEVAPVK_]
collision cross section [13]: 422.58 ± 0.97 Å²
collision cross section [14]: 511.69 ± 1.3 Å²

DKALPLEAEVAPVK [_DK(Malonyl)ALPLEAEVAPVK_]
collision cross section [15]: 414.83 ± 0.6 Å²

DKALPLEAEVAPVK [_DK(Methyl (K))ALPLEAEVAPVK_]
collision cross section [16]: 408.8 ± 1.9 Å²
collision cross section [17]: 507.57 ± 2 Å²

DKALPLEAEVAPVK [_DK(Propionyl)ALPLEAEVAPVK_]
collision cross section [18]: 410.19 Å²

DKALPLEAEVAPVK [_DK(Succinyl)ALPLEAEVAPVK_]
collision cross section [19]: 421.55 ± 0.36 Å²

DKALPLEAEVAPVK [_DK(Trimethyl (K))ALPLEAEVAPVK_]
collision cross section [1]: 415.71 ± 1.1 Å²
collision cross section [2]: 491.82 ± 2.4 Å²

DKALPLEAEVAPVK [_DK(hydroxyisobutyryl)ALPLEAEVAPVK_]
collision cross section [3]: 422.26 ± 0.83 Å²

DLATVYVDVLK [_DLATVY(Nitro (Y))VDVLK_]
collision cross section [20]: 387.27 ± 0.74 Å²

DLEEAEEYK [_DLEEAEEY(Nitro (Y))K_]
collision cross section [20]: 368.75 ± 2.1 Å²

DLEEAEEYK [_DLEEAEEY(Phospho (Y))K_]
collision cross section [21]: 369.49 ± 0.064 Å²

DLGKFQVATDALK [_DLGK(Acetyl (K))FQVATDALK_]
collision cross section [5]: 405.65 ± 0.97 Å²

DLGKFQVATDALK [_DLGK(Biotin)FQVATDALK_]
collision cross section [6]: 425.47 ± 0.89 Å²

DLGKFQVATDALK [_DLGK(Butyryl)FQVATDALK_]
collision cross section [7]: 411.4 ± 0.85 Å²

DLGKFQVATDALK [_DLGK(Crotonyl)FQVATDALK_]
collision cross section [8]: 409.72 ± 0.55 Å²

DLGKFQVATDALK [_DLGK(Dimethyl (K))FQVATDALK_]
collision cross section [9]: 400.58 ± 0.77 Å²
collision cross section [10]: 478.59 ± 14 Å²

DLGKFQVATDALK [_DLGK(Formyl)FQVATDALK_]
collision cross section [11]: 403.92 ± 0.55 Å²

DLGKFQVATDALK [_DLGK(Gluratylation)FQVATDALK_]
collision cross section [12]: 414.3 ± 0.6 Å²

DLGKFQVATDALK [_DLGK(GlyGly (K))FQVATDALK_]
collision cross section [13]: 422.76 ± 0.97 Å²
collision cross section [14]: 498.2 ± 1.1 Å²

DLGKFQVATDALK [_DLGK(Malonyl)FQVATDALK_]
collision cross section [15]: 406.38 ± 0.61 Å²

DLGKFQVATDALK [_DLGK(Methyl (K))FQVATDALK_]
collision cross section [16]: 399.05 ± 1.1 Å²
collision cross section [17]: 491.01 ± 3.2 Å²

DLGKFQVATDALK [_DLGK(Propionyl)FQVATDALK_]
collision cross section [18]: 407.94 Å²

DLGKFQVATDALK [_DLGK(Succinyl)FQVATDALK_]
collision cross section [19]: 409.86 ± 0.37 Å²
collision cross section [22]: 478.58 Å²

DLGKFQVATDALK [_DLGK(Trimethyl (K))FQVATDALK_]
collision cross section [1]: 414.1 ± 0.6 Å²
collision cross section [2]: 492.6 ± 1.8 Å²

DLGKFQVATDALK [_DLGK(hydroxyisobutyryl)FQVATDALK_]
collision cross section [3]: 409.13 ± 0.55 Å²

DLSTVEALQNLKNLK [_DLSTVEALQNLK(Acetyl (K))NLK_]
collision cross section [5]: 475.96 ± 3.5 Å²
collision cross section [23]: 544.02 Å²

DLSTVEALQNLKNLK [_DLSTVEALQNLK(Butyryl)NLK_]
collision cross section [7]: 484.29 ± 0.35 Å²
collision cross section [24]: 550.2 Å²

DLSTVEALQNLKNLK [_DLSTVEALQNLK(Crotonyl)NLK_]
collision cross section [8]: 484.33 ± 1.1 Å²

DLSTVEALQNLKNLK [_DLSTVEALQNLK(Dimethyl (K))NLK_]
collision cross section [9]: 476.15 ± 1.7 Å²
collision cross section [10]: 513.29 ± 0.57 Å²

DLSTVEALQNLKNLK [_DLSTVEALQNLK(Formyl)NLK_]
collision cross section [11]: 474.81 ± 0.7 Å²

DLSTVEALQNLKNLK [_DLSTVEALQNLK(Gluratylation)NLK_]
collision cross section [25]: 545.2 Å²

DLSTVEALQNLKNLK [_DLSTVEALQNLK(GlyGly (K))NLK_]
collision cross section [13]: 473.91 ± 4.8 Å²
collision cross section [14]: 514.39 ± 5.7 Å²

DLSTVEALQNLKNLK [_DLSTVEALQNLK(Malonyl)NLK_]
collision cross section [15]: 481.83 ± 1.5 Å²

DLSTVEALQNLKNLK [_DLSTVEALQNLK(Methyl (K))NLK_]
collision cross section [16]: 475.78 ± 3.5 Å²
collision cross section [17]: 545.72 ± 1.2 Å²

DLSTVEALQNLKNLK [_DLSTVEALQNLK(Succinyl)NLK_]
collision cross section [19]: 483.86 ± 0.78 Å²
collision cross section [22]: 537.21 Å²

DLSTVEALQNLKNLK [_DLSTVEALQNLK(Trimethyl (K))NLK_]
collision cross section [1]: 478.82 ± 1.1 Å²
collision cross section [2]: 501.71 ± 2.5 Å²

DLSTVEALQNLKNLK [_DLSTVEALQNLK(hydroxyisobutyryl)NLK_]
collision cross section [3]: 486.36 ± 1.3 Å²
collision cross section [4]: 549.84 ± 1.8 Å²

DLTTAGAVTQCYR [_DLTTAGAVTQCY(Nitro (Y))R_]
collision cross section [20]: 399.32 ± 0.8 Å²
collision cross section [26]: 462.24 Å²

DLTTAGAVTQCYR [_DLTTAGAVTQCY(Phospho (Y))R_]
collision cross section [21]: 405.28 ± 0.061 Å²

DLYEPSHGAK [_DLY(Nitro (Y))EPSHGAK_]
collision cross section [20]: 364.04 ± 0.94 Å²
collision cross section [26]: 435.87 ± 1.2 Å²

DLYEPSHGAK [_DLY(Phospho (Y))EPSHGAK_]
collision cross section [21]: 375.68 ± 0.063 Å²

DNNNSNNRGSYNR [_DNNNSNNR(Citrullination (R))GSYNR_]
collision cross section (charge state: 3, modification: Citrullination (R)): 460.73 ± 2.9 Å²

DNNNSNNRGSYNR [_DNNNSNNR(Methyl (R))GSYNR_]
collision cross section (charge state: 3, modification: Methyl (R)): 460.8 ± 2.4 Å²

DSINFLDHINGKK [_DSINFLDHINGK(Acetyl (K))K_]
collision cross section [23]: 470.59 Å²

DSINFLDHINGKK [_DSINFLDHINGK(Butyryl)K_]
collision cross section [24]: 471.81 Å²

DSINFLDHINGKK [_DSINFLDHINGK(Crotonyl)K_]
collision cross section (charge state: 3, modification: Crotonyl): 467.81 Å²

DSINFLDHINGKK [_DSINFLDHINGK(Formyl)K_]
collision cross section (charge state: 3, modification: Formyl): 468.04 Å²

DSINFLDHINGKK [_DSINFLDHINGK(Gluratylation)K_]
collision cross section [25]: 460.36 ± 1.7 Å²

DSINFLDHINGKK [_DSINFLDHINGK(GlyGly (K))K_]
collision cross section [14]: 464.41 ± 1.6 Å²
